According to patent publication US20230181756A1 (Novartis, published 2023):

T1: human CCR7 (human, UniProt P32248 25-378)
T1 construct: The assay field tells which; also called hCCR7; NIH3T3.hCCR7
T1 sequence: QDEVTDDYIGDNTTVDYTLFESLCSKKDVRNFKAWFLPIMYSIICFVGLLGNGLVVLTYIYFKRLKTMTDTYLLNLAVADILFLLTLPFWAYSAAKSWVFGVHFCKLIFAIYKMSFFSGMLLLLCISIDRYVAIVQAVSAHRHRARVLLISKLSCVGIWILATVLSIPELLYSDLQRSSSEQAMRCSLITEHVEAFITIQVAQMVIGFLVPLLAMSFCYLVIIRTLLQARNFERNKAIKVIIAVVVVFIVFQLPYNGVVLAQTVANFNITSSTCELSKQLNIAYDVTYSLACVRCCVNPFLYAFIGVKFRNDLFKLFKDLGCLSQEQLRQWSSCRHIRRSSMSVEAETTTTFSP

T2: CCR6 (UniProt P51684 1-374, limits assumed)
T2 construct: whole, on cells; also called PF382 cells (CCR7-/CCR9+/CCR6+)
T2 sequence (looked up): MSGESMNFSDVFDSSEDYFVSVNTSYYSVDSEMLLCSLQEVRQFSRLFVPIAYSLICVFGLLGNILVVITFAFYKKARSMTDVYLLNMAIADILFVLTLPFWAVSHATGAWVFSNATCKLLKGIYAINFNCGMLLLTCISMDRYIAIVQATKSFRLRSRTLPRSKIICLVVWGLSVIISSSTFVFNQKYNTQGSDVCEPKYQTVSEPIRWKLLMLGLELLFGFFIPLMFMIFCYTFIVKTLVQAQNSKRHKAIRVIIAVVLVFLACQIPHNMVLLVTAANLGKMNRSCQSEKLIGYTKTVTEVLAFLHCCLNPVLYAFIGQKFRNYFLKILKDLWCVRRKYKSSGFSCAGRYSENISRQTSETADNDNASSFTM

T3: CCR9 (UniProt P51686 1-369, limits assumed)
T3 construct: whole, on cells; also called PF382 cells (CCR7-/CCR9+/CCR6+)
T3 sequence (looked up): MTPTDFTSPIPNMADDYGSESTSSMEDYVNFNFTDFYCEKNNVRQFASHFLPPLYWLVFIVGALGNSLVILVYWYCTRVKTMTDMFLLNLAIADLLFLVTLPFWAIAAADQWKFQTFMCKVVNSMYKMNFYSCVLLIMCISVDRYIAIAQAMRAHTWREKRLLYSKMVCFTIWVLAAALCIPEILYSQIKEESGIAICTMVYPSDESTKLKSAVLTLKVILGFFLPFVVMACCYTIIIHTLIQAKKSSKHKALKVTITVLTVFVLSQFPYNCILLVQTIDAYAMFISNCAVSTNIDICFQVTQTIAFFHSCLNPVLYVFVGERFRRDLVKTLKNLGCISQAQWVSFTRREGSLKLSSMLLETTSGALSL

T4: cynomolgus monkey CCR7 (cynomolgus monkey, UniProt P32248 25-378 (human entry))
T4 construct: also called Cyno CCR7; NIH3T3.cyno CCR7
T4 sequence: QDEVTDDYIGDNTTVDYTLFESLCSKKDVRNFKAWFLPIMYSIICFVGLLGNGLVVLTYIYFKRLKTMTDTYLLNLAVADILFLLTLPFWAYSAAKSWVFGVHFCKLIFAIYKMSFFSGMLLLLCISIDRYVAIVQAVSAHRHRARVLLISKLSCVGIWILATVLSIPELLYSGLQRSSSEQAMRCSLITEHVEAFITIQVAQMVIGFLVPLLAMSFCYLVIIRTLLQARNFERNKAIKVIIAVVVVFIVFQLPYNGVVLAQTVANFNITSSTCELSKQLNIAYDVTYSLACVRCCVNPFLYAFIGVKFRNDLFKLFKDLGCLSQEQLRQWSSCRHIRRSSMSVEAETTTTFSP

T5: recombinant hCCR7 (Origene #TP306614) (human, UniProt P32248 25-378, limits assumed)
T5 construct: Bought protein coated on ELISA plates; also called recombinant CCR7
T5 sequence (looked up): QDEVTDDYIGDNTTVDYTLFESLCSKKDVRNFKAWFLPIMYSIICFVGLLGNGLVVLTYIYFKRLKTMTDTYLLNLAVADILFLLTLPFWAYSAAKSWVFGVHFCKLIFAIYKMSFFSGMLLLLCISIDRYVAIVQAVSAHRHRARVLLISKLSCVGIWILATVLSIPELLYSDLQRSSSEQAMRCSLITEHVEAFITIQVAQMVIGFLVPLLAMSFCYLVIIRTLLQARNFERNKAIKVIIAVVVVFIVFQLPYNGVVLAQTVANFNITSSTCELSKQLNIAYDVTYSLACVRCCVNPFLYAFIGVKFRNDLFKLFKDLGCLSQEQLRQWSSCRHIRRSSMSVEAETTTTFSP


How the values were obtained:
human CCR7 [1] = target: T1, human CCR7; test: ELISA on CCR7-expressing VLPs, pH 5.8 buffer
CXCR4 = target: T6, CXCR4 (UniProt P61073 1-352, limits assumed); test: FACS on HEK293-CXCR4 cells
T6 construct: whole, on cells; also called HEK293-CXCR4

CCR6 = target: T2, CCR6; test: FACS on PF382 cells (CCR7-/CCR9+/CCR6+)
CCR9 = target: T3, CCR9; test: FACS on PF382 cells (CCR7-/CCR9+/CCR6+)
CCR8 = target: T7, CCR8 (UniProt P51685 1-355, limits assumed); test: FACS on CHO-CCR8 cells
T7 construct: whole, on cells; also called CHO-CCR8

human CCR7 [2] = target: T1, human CCR7; test: ELISA on CCR7-expressing VLPs, pH 7.4 buffer
cynomolgus monkey CCR7 = target: T4, cynomolgus monkey CCR7; test: FACS titration, cynomolgus CD4+ T cells
human CCR7 [3] = target: T1, human CCR7; test: FACS titration, human CD4+ T cells (receptor density <2,000)
human CCR7 [4] = target: T1, human CCR7; test: cell-based or functional assay
human CCR7 [5] = target: T1, human CCR7; test: FACS titration, NIH3T3.hCCR7 cells (receptor density >1,000,000)
[6] = target: T5, recombinant hCCR7 (Origene #TP306614); test: ELISA, recombinant CCR7 coated at 3.5 ug/ml, antibody titrated
[7] = target: T5, recombinant hCCR7 (Origene #TP306614); test: ELISA on plate-coated recombinant hCCR7, antibody titrated, anti-hFc-HRP detection, OD 650 nm
human CCR7 [8] = target: T1, human CCR7; test: FACS titration, DEL cancer cells (receptor density ~100,000)
human CCR7 [9] = target: T1, human CCR7; test: FACS binding on CCR7 expressing cells, against the unconjugated antibody
human CCR7 [10] = target: T1, human CCR7; test: FACS titration, DEL cells (CCR7 receptor levels >=100,000)
human CCR7 [11] = target: T1, human CCR7; test: cell-based or functional assay; remark: listed apart in the source
human CCR7 [12] = target: T1, human CCR7; test: cell-based or functional assay; remark: listed apart in the source
human CCR7 [13] = target: T1, human CCR7; test: FACS titration, human CD4+ T cells from PBMC

T7 sequence (P51685 whole entry): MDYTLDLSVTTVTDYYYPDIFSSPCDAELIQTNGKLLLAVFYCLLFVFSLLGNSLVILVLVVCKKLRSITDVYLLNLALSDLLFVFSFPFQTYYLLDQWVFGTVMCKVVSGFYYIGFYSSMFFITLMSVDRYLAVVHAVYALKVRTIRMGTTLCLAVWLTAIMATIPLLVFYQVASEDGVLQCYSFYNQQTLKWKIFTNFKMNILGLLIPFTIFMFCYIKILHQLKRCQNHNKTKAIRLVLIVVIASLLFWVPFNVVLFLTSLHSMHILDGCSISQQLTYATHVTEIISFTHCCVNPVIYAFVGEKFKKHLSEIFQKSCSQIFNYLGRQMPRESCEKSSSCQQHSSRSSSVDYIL
T6 sequence (P61073 whole entry): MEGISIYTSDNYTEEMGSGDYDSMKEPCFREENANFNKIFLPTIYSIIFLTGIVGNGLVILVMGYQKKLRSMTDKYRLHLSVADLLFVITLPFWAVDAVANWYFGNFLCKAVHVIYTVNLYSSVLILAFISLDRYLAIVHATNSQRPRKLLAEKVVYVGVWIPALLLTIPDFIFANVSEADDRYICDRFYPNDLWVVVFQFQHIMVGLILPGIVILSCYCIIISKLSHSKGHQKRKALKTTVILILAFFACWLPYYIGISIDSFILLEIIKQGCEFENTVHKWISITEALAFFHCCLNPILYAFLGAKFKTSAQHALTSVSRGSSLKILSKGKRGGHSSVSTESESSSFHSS

Binder | Kd (human CCR7 [1]) | binding result (CXCR4) | binding result (CCR6) | binding result (CCR9) | binding result (CCR8) | Kd (human CCR7 [2]) | EC50 (cynomolgus monkey CCR7) | EC50 (human CCR7 [3]) | pHrodo (6 h MFI), internalization, CD4+ T cells (receptor numbers 2000) (human CCR7 [4]) | pHrodo (6 h MFI), internalization, CMLT1 cells (receptor numbers 19583) (human CCR7 [4]) | pHrodo (6 h MFI), internalization, DEL cells (receptor numbers 110685) (human CCR7 [4]) | pHrodo (6 h MFI), internalization, JVM3 cells (receptor numbers 8717) (human CCR7 [4]) | pHrodo (6 h MFI), internalization, Jeko-1 cells (receptor numbers 28852) (human CCR7 [4]) | pHrodo (6 h MFI), internalization, KE97 cells (receptor numbers 152093) (human CCR7 [4]) | pHrodo (6 h MFI), internalization, L540 cells (receptor numbers 167549) (human CCR7 [4]) | pHrodo (6 h MFI), internalization, L1236 cells (receptor numbers 61602) (human CCR7 [4]) | pHrodo (6 h MFI), internalization, MJ cells (receptor numbers 111121) (human CCR7 [4]) | pHrodo (6 h MFI), internalization, MOTN1 cells (receptor numbers 84200) (human CCR7 [4]) | pHrodo (6 h MFI), internalization, Mec2 cells (receptor numbers 50840) (human CCR7 [4]) | EC50 (human CCR7 [5]) | also measured
674J13 humanized CysMab (Fc Wild Type) (antibody, V domains shown, Human IgG1 kappa with CysMab cysteines; also called Humanized CysMab antibody 674J13) VH: DVQLQESGPGLVKPSQTLSLTCTVSGYSITSGYSWHWIRQHPGKGLEWMAHIHSSGSTNYNPSLKSRITISRDTSKNQFSLKLSSVTAADTAVYYCARGGVQAFAYWGQGTLVTVSS VL: EIVLTQSPATLSASPGERVTMSCSASSSVIYMHWYQQKPGQAPRRWIYDTSKLASGVPARFSGSGSGTDYTLTISSMEPEDAAVYYCQQWSSNPLTFGQGTKLEIK | 0.166 nM | no binding (tested: 5 ug/ml) | no binding (tested: 5 ug/ml) | no binding (tested: 5 ug/ml) | no binding (tested: 5 ug/ml) | 0.0162 nM | 0.5 nM |  |  |  |  |  |  |  |  |  |  |  |  |  | 
Humanized 121G12.CysMab.DAPA (antibody, human IgG1, kappa, Human IgG1 kappa with D265A/P329A and CysMab cysteines; also called 121G12 (Humanized CysMab, DAPA)) heavy: EVQLVESGGGLVKPGGSLRLSCAASGFTFSTYAMSWVRQAPGKGLEWVATISDAGSYSYYPDNVKGRFTISRDNAKNSLYLQMNSLRAEDTAVYYCARRGSRYEEYYVMDYWGQGTTVTVSSASTKGPSVFPLAPSSKSTSGGTAALGCLVKDYFPCPVTVSWNSGALTSGVHTFPAVLQSSGLYSLSSVVTVPSSSLGTQTYICNVNHKPSNTKVDKRVEPKSCDKTHTCPPCPAPELLGGPSVFLFPPKPKDTLMISRTPEVTCVVVAVSHEDPEVKFNWYVDGVEVHNAKTKPREEQYNSTYRVVSVLTVLHQDWLNGKEYKCKVSNKALAAPIEKTISKAKGQPREPQVYTLPPSREEMTKNQVSLTCLVKGFYPCDIAVEWESNGQPENNYKTTPPVLDSDGSFFLYSKLTVDKSRWQQGNVFSCSVMHEALHNHYTQKSLSLSPGK light: EIVLTQSPATLSVSPGERVTLSCRASQSISNNLHWYQQKPGQAPRLLIKYASQSISGIPARFSGSGSGTDFTLTISSVEPEDFGVYFCQQSSSWLTFGQGTKLEIKRTVAAPSVFIFPPSDEQLKSGTASVVCLLNNFYPREAKVQWKVDNALQSGNSQESVTEQDSKDSTYSLSSTLTLSKADYEKHKVYACEVTHQGLSSPVTKSFNRGEC |  |  |  |  |  |  |  | ~30 nM | 278 MFI | 301 MFI | 1910 MFI | 148 MFI | 450 MFI | 1570 MFI | 6840 MFI | 1240 MFI | 1650 MFI | 1030 MFI | 1340 MFI | 2.5 nM | Kd [6]: 0.677 nM; EC50 (read off the curve) [7]: ~0.6 nM; EC50 (human CCR7 [8]): 1.78 nM
121G12.DAPA.sSPDB.DM4 (antibody, human IgG1, kappa, sulfo-SPDB-DM4 on endogenous lysines (sites not defined, may also be on the light chain); DAR 3.6 in Example 4B, DAR 3.9 in Tables 20 and 21, also called 121G12.sSPDB.DM4) heavy: not shown light: EIVLTQSPATLSVSPGERVTLSCRASQSISNNLHWYQQKPGQAPRLLIKYASQSISGIPARFSGSGSGTDFTLTISSVEPEDFGVYFCQQSSSWLTFGQGTKLEIKRTVAAPSVFIFPPSDEQLKSGTASVVCLLNNFYPREAKVQWKVDNALQSGNSQESVTEQDSKDSTYSLSSTLTLSKADYEKHKVYACEVTHQGLSSPVTKSFNRGEC |  |  |  |  |  |  |  |  |  |  |  |  |  |  |  |  |  |  |  |  | difference of geometric mean fluorescence intensity from the unconjugated antibody (human CCR7 [9]): ≤ 20%; EC50 (human CCR7 [10]): 8.42 nM; ADC activity in cell viability assay; IC50 (nM); DEL cells (human CCR7 [11]): 2.98 nM; ADC activity in cell viability assay; IC50 (nM); KE97 cells (human CCR7 [11]): 3.18 nM; ADC activity in cell viability assay; IC50 (nM); L540 cells (human CCR7 [11]): 3.9 nM
Humanized 506E15.CysMab.DAPA (antibody, human IgG1, kappa, V domains shown, Human IgG1 kappa with D265A/P329A and CysMab cysteines; also called 506E15 (Humanized CysMab DAPA)) VH: EVQLVESGGGLVKPGGSLRLSCAASGFTFSSYAMSWIRQAPGKGLEWVATISSGGSFTYYPDSVKGRFTISRDNAKNSLYLQMNSLRAEDTAVYYCARRASTVVGTDFDVWGQGTTVTVSS VL: DIQMTQSPSSLSASVGDRVTLTCRASQDIGSSLNWLQQKPGKAIKRLIYATSSLDSGVPSRFSGSRSGTDYTLTISSLQPEDFVVYYCLQYASSPPTFGGGTKLEIKR |  |  |  |  |  |  |  | ~10 nM | 429 MFI | 465 MFI | 3060 MFI | 238 MFI | 908 MFI | 2720 MFI | 16100 MFI | 3130 MFI | 3870 MFI | 2900 MFI | 3090 MFI | 1.8 nM | Kd [6]: 5.73 nM; EC50 (human CCR7 [8]): 3.09 nM
506E15 humanized CysMab (Fc Wild Type) (antibody, V domains shown, Human IgG1 kappa with CysMab cysteines; also called Humanized CysMab antibody 506E15) VH: EVQLVESGGGLVKPGGSLRLSCAASGFTFSSYAMSWIRQAPGKGLEWVATISSGGSFTYYPDSVKGRFTISRDNAKNSLYLQMNSLRAEDTAVYYCARRASTVVGTDFDVWGQGTTVTVSS VL: DIQMTQSPSSLSASVGDRVTLTCRASQDIGSSLNWLQQKPGKAIKRLIYATSSLDSGVPSRFSGSRSGTDYTLTISSLQPEDFVVYYCLQYASSPPTFGGGTKLEIK | 0.494 nM | no binding (tested: 5 ug/ml) | no binding (tested: 5 ug/ml) | no binding (tested: 5 ug/ml) | no binding (tested: 5 ug/ml) | 0.0571 nM | 7 nM |  |  |  |  |  |  |  |  |  |  |  |  |  | ADCC activity; IC50 (nM); reporter assay, JVM2 targets and Jurkat-V158 effectors (human CCR7 [12]): 0.054 nM; EC50 (human CCR7 [13]): 7.8 to 11 nM
